Experimental data: patent CN114057887A
Read-outs that look alike come from different tables or passages of the source.

Assays:
[1] = target: RBD-Fc (义翘神州，40592-V05H) (SARS-CoV-2) (UniProt P0DTC2)
[2] = target: RBD-Fc (义翘神州，40592-V05H) (SARS-CoV-2) (UniProt P0DTC2); remark: listed apart in the source

**Q.** “hACE2-Fc融合蛋白 (人ACE2胞外区(ECD)与人IgG1的Fc片段的融合蛋白) (Fc fusion)” was tested. Which IC50 [1] did it give?
**A.** 5.02 nM

**Q.** What about the IC50 [2] of the same substance?
**A.** 7.6 nM
